In the supplement of paper PMC10126150:
± gives the standard deviation of the averaged measurements.

System: ATP
Experiment: switch fluorescence ratio, 500 uM ATP over buffer (Cy3 cluster intensity, sum of 5 cycles each) (fold (ratio)); higher = stronger signal-on switching upon ATP binding; sequences stand for … in TCGTCGGCAGCGTCAGATGTGTATAAGAGACAGTTTTTTTTTTTTTTTTTTTTTTTTT…TC
Conditions: aptamer strand: ATP DNA aptamer (quencher-CACCTGGGGGAGTATTGCGGAGGAAGG + anchor), 100 nM annealed; ATP concentration: 500 uM
In short: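 Clusters carrying Cy3-labelled switching strands on a modified Illumina MiSeq flow-cell were annealed to 100 nM quencher-labelled ATP aptamer and imaged in selection buffer. They were imaged again after 15 min with 500 uM ATP at 22 °C, over five buffer/ATP cycles with NaOH stripping and re-annealing in between. For each cluster, the fluorescence ratio is the summed Cy3 intensity of the target cycles divided by that of the buffer cycles, averaged per switch-domain sequence. Clusters outside 100-1000 RFU were left out.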
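Note: ATP exposure 15 min at 22 °C before imaging.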

Row | Sequence | switch fluorescence ratio
1 | AAGACTGTGC | 1.01 ± 0.022
2 | CGGTCATAAG | 0.982 ± 0.043
3 | CCGTCATCTG | 1.04 ± 0.029
4 | TAGGTTGTGG | 0.994 ± 0.016
5 | TAAGGACGGG | 1.02 ± 0.03
6 | CAGAAGGTTT | 1 ± 0.022
7 | GAGGCGTATT | 0.988 ± 0.049
8 | GGTCTTGGGC | 1.02 ± 0.026
9 | ATCAAAATTG | 1.01 ± 0.027
10 | GGATTATGGA | 0.971 ± 0.025
11 | TTAAATGCCT | 1.07 ± 0.028
12 | TAAAGCTTAA | 1.05 ± 0.041
13 | TGGGCAAGGT | 1.05 ± 0.038
14 | TGGGGTCTAG | 0.969 ± 0.01
15 | CCAGGAACGA | 0.986 ± 0.028
16 | ACATTATATG | 1.01 ± 0.043
17 | ATTGTATCAG | 0.983 ± 0.027
18 | CTGAAAGGGA | 1.01 ± 0.02
19 | CTGGGTGTGC | 1.01 ± 0.02
20 | TATGTTTTGT | 1.02 ± 0.041
21 | GGTTGGGGAC | 0.971 ± 0.022
22 | TGTGGAATAA | 1.03 ± 0.039
23 | AGGGGCCGGT | 1.01 ± 0.014

Row | Sequence | switch fluorescence ratio
24 | TTCCGCACGT | 2.64 ± 1.3
25 | CAGCAACGTA | 1.05 ± 0.025
26 | GCTCAATCTA | 1.01 ± 0.006
27 | AGGTTAGGGC | 0.984 ± 0.018
28 | CAGGTACATT | 1.02 ± 0.049
29 | TGTTTGGGGC | 0.989 ± 0.019
30 | GTTGGGGCGA | 1.02 ± 0.076
31 | ATCTGATCGA | 0.96 ± 0.037
32 | TTGGGTGGCA | 1.03 ± 0.039
33 | TGCCGGATTT | 1.02 ± 0.018
34 | GGGTAAAAAG | 0.991 ± 0.018
35 | TTCTGCGTAT | 1.01 ± 0.036
36 | ATTTTTTAAC | 1.019 ± 0.0096
37 | TTATGTCCGG | 1.02 ± 0.025
38 | TAGGGAATTA | 1.01 ± 0.012
39 | TGTTGTAGCG | 0.975 ± 0.037
40 | GCCTTTGGCA | 0.962 ± 0.013
41 | ATACGGACGG | 1.4 ± 0.073
42 | GTTGCGGGCG | 0.991 ± 0.06
43 | AAGGGGGGAA | 1.06 ± 0.21
44 | TTATCTGCCT | 1.06 ± 0.072
45 | CGACGTGGGA | 1.042 ± 0.0055
46 | GCATTGGGGC | 0.9893 ± 0.0098

Row | Sequence | switch fluorescence ratio
47 | TTTGGCGTGC | 1 ± 0.045
48 | TTTTTGGCCG | 1.06 ± 0.034
49 | AAGTTTCGAG | 0.983 ± 0.017
50 | CTGTCCTAAT | 1.009 ± 0.0049
51 | AATTTATGC | 0.97 ± 0.011
52 | GCAAGAAAAA | 1.023 ± 0.0056
53 | ATGTGTGGAG | 1.013 ± 0.0048
54 | ATTTATGGTA | 0.971 ± 0.014
55 | TATAAGGATC | 0.982 ± 0.057
56 | AATCCCGCCA | 1.19 ± 0.034
57 | ATGATTTACT | 1.02 ± 0.02
58 | TCTGGTATGG | 0.994 ± 0.0034
59 | TTATTTGCTG | 1.02 ± 0.056
60 | TTTTTAAGTC | 0.985 ± 0.026
61 | AAGGTTGCGG | 1 ± 0.037
62 | TGAAGAAAGG | 0.981 ± 0.02
63 | ATGAGAATTT | 1.01 ± 0.049
64 | AATTTAAGCG | 1.01 ± 0.017
65 | CATTTGGAAG | 1.02 ± 0.061
66 | GTCGCAAGTT | 1.01 ± 0.018
67 | TTTAAATAGC | 0.9742 ± 0.00053
68 | CCACGGCAGG | 1.229 ± 0.011
69 | TAAGCGGGGA | 1.027 ± 0.0054

Row | Sequence | switch fluorescence ratio
70 | AGGCCGGGGG | 0.992 ± 0.025
71 | GAAGATGAAA | 0.984 ± 0.017
72 | TGTTTGAGG | 0.9559 ± 0.009
73 | TATTTCTTTT | 1.05 ± 0.11
74 | TAGCTAGTCG | 1.01 ± 0.039
75 | TTGGAGTTTT | 1.01 ± 0.038
76 | TTAATAGTTT | 0.988 ± 0.04
77 | GGGCAACGGG | 1.2 ± 0.12
78 | TGGGAGGTGT | 1.04 ± 0.028
79 | TGTGTGGGGT | 0.975 ± 0.021
80 | GGGAGGAAGA | 1.01 ± 0.03
81 | GGGGAATTGT | 1.02 ± 0.056
82 | TAAAAGAGGG | 0.9558 ± 0.0023
83 | GACCACAGCG | 1.02 ± 0.029
84 | GCTGTGCGGG | 0.95 ± 0.018
85 | TGGGATACTG | 1 ± 0.013
86 | ATGCTGAGGA | 0.977 ± 0.042
87 | AGTTGGCTGA | 0.9967 ± 0.0063
88 | ATCATGGTTG | 1.002 ± 0.0063
89 | ACAGGATCCG | 1.01 ± 0.00021
90 | CATCATTATA | 0.9866 ± 0.0079
91 | TTAGTGACTA | 1.01 ± 0.031
92 | TTTTGAACGC | 1.065 ± 0.0016

Row | Sequence | switch fluorescence ratio
93 | TAACAAATAG | 0.9741 ± 0.0062
94 | CGGCCGGGGA | 1.14 ± 0.19
95 | ACAGTTATTA | 1.03 ± 0.028
96 | AACTGTAGAC | 1.121 ± 0.0022
97 | CCGGTCTATT | 1 ± 0.048
98 | AGAAGAGGTA | 0.949 ± 0.024
99 | TGATTTGGAC | 1.01 ± 0.061
100 | ATAACGTTGA | 0.99 ± 0.017
101 | TGTTGCGGGT | 1.01 ± 0.042
102 | GGCAATAATA | 1.09 ± 0.035
103 | TAGAAACCTT | 1.81 ± 1.1
104 | GCGGAGCTTT | 1.01 ± 0.015
105 | AAGGATGGGA | 1 ± 0.023
106 | GGGGGCTTGT | 1 ± 0.019
107 | GTTAAAATAC | 1.13 ± 0.014
108 | CCATAGGATA | 1.0259 ± 0.00058
109 | ATTGGGGCGC | 0.991 ± 0.041
110 | GGCTGTTGGG | 0.978 ± 0.012
111 | GGGATTGTT | 0.996 ± 0.033
112 | AGCCGAATTC | 1.03 ± 0.06
113 | TGAGAGTTAT | 1 ± 0.051
114 | TTTTTATCGG | 1.01 ± 0.024
115 | AAGGGGCCGC | 0.982 ± 0.026

Row | Sequence | switch fluorescence ratio
116 | TAAGTTTTAG | 1.07 ± 0.081
117 | ATTGGAAAAG | 0.985 ± 0.035
118 | TGAAGTATGA | 1.03 ± 0.045
119 | ACAAAAAGGG | 1.02 ± 0.039
120 | TGTTTCCGGT | 1.44 ± 0.59
121 | CCTCGTAGGT | 1.07 ± 0.024
122 | TCAGAGTGTG | 0.989 ± 0.019
123 | TTGGGGTCGA | 0.951 ± 0.04
124 | CCATTTCTTT | 1.01 ± 0.067
125 | GATCCTGGGG | 0.974 ± 0.054
126 | AGTATTGGAG | 1.004 ± 0.0023
127 | CTTGGCATCT | 1.01 ± 0.033
128 | GGGGTTGCGA | 0.996 ± 0.018
129 | ACATGCGGTG | 1.002 ± 0.0033
130 | AGTGTTAGTG | 0.997 ± 0.037
131 | GTATTTGAGT | 0.991 ± 0.0031
132 | GACCTTGATT | 1.03 ± 0.029
133 | TTCTGCTATC | 1.79 ± 0.12
134 | AAATTTTGGC | 1.1 ± 0.042
135 | TCCGGTACTG | 1.16 ± 0.074
136 | TGGTTTTGTT | 1.01 ± 0.058
137 | ATATTAGACG | 1.04 ± 0.036
138 | GAAGGGATTG | 1.02 ± 0.041

Row | Sequence | switch fluorescence ratio
139 | AAATATAGTG | 0.991 ± 0.025
140 | CCAGGGGCGA | 1.75 ± 0.9
141 | CGATAATTTG | 0.994 ± 0.015
142 | CCGGATATGG | 1.135 ± 0.0024
143 | ATTTATGTTT | 0.979 ± 0.03
144 | GTGTTAAGTT | 0.987 ± 0.034
145 | TTACGGATAA | 1.49 ± 0.67
146 | CGTTTAGTTG | 1.002 ± 0.009
147 | GATCGAGACC | 1.024 ± 0.0044
148 | AAAGGGGTGC | 1.05 ± 0.048
149 | ATTGTATGGA | 1 ± 0.011
150 | ACCTTATAAT | 1.025 ± 0.0092
151 | CTCAATCGAA | 1.03 ± 0.026
152 | AAGGTTTGTA | 0.9899 ± 0.0068
153 | TAGTTATTTT | 1.01 ± 0.021
154 | TAACGCTTTT | 1.002 ± 0.0065
155 | TTATAAGAGG | 0.979 ± 0.0047
156 | TTCCGGAGAT | 1.43 ± 0.34
157 | TATAGTGCGT | 0.978 ± 0.03
